According to article PMC6128205:

Target: T1, SlyA (Shigella flexneri serotype 2a 2457T) (UniProt P0A8W4)
T1 sequence: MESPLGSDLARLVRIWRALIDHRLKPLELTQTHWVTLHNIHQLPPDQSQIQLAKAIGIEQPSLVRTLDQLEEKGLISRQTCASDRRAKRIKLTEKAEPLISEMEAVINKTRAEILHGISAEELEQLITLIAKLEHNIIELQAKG
Assay: EMSA
Details: 10 mM Tris-HCl pH 7.5, 100 mM KCl, 1 mM EDTA, 0.1 mM DTT, 5% glycerol, 10 ug/mL BSA, room temperature 30 min

CAGTCTGAACGGGGTGTACACGCCGTATATGCAGGATAAACAATAATTAATTTGATCGCCCGAACAGGAATGTTTGGGCGATTTTTATTACGATAATAAAGTCTGTTTTTAATATTATCATGTTAAATGTTTATATTATAAAAAGTCGTTTTTCTGCTTAGGATTTTGTTATTTAAATTAAGCCTGTAATGCCTTGCTTCCATTGCGGATAAATCCTACTTTTTTATTGCCTTCAAATAAATTTAAGGAGTTCGAAATGGACCAGAAGCTGTTAACGGATTTCCGCTCAG (double strand) [PgadA]
binding: binds
